Results published in publication PMC10410066.

What was measured:
[1] = target: N571 Q55 HTT (N-terminal huntingtin fragment 1-571 with 55 glutamines); assay: ELISA protein-protein interaction assay (2B7 capture, anti-FLAG detection); conditions: lysates of HEK293T cells co-overexpressing N571 Q55 HTT and FLAG-tagged IKBKB construct; parent: est. 100; read off a plot
[2] = target: inhibitor of nuclear factor kappa B kinase subunit beta (IKBKB), FLAG-tagged (UniProt O14920); assay: as above; conditions: lysates of HEK293T cells co-overexpressing N571 Q55 HTT WT or S13A/S16A and FLAG-tagged IKBKB; parent: est. 100; read off a plot

Row | Substance | percent of parent [1] [%] | percent of parent [2] [%]
1 | inhibitor of nuclear factor kappa B kinase subunit beta (IKBKB), FLAG-tagged (from UniProt O14920) K44A | 17 | 
2 | inhibitor of nuclear factor kappa B kinase subunit beta (IKBKB), FLAG-tagged (from UniProt O14920) W739A; W741A | 190 | 
3 | inhibitor of nuclear factor kappa B kinase subunit beta (IKBKB), FLAG-tagged (from UniProt O14920) S177E; S181E | 190 | 
4 | N571 Q55 HTT (N-terminal huntingtin fragment 1-571 with 55 glutamines) S13A; S16A |  | 100
